This passage reports apparent KD of DNJ-13 from titration of the steady-state ATPase activity, standard buffer, 25°C and apparent KD of DNJ-13 from titration of the steady-state ATPase activity of 1 µM CeHsc70-Δ512 in the presence of 2 µM BAG-1, standard buffer, 25°C results from article PMC3315512.

The target in assay [1] is CeHsc70-Δ545 (half-lid deletion of CeHsc70) (C. elegans) (UniProt P09446).
Assay [2] deals with CeHsc70-Δ512 (lidless CeHsc70) (C. elegans) (UniProt P09446).
CeHsc70-Δ512 (lidless CeHsc70) (C. elegans), sequence (P09446 1-512, stated change not applied): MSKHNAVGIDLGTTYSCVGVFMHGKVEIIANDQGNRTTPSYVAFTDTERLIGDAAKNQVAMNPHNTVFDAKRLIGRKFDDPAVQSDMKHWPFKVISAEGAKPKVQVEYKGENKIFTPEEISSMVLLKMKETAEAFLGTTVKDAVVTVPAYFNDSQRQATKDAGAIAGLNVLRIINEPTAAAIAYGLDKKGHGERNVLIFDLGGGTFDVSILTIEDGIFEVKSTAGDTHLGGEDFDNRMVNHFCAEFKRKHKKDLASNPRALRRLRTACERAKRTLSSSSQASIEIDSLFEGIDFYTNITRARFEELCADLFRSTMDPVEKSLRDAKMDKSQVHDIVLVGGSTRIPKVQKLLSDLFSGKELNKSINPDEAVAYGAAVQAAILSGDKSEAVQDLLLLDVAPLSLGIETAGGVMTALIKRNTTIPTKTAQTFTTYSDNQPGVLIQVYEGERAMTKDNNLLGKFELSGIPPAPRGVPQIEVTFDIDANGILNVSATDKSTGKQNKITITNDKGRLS

DNJ-13 (C. elegans, unlabelled), Q20774 1-331 (natural protein), sequence (Q20774 entry or part of it): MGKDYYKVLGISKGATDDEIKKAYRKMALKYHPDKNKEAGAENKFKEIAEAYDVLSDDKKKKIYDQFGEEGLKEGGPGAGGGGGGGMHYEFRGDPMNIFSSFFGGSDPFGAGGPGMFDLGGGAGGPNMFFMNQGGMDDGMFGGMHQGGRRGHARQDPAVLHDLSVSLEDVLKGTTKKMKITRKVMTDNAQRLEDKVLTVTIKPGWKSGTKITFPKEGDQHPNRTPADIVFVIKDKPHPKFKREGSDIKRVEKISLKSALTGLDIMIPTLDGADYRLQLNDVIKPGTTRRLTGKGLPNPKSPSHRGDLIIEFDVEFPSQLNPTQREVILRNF
CeHsc70-Δ545 (half-lid deletion of CeHsc70) (C. elegans), sequence (P09446 1-545, stated change not applied): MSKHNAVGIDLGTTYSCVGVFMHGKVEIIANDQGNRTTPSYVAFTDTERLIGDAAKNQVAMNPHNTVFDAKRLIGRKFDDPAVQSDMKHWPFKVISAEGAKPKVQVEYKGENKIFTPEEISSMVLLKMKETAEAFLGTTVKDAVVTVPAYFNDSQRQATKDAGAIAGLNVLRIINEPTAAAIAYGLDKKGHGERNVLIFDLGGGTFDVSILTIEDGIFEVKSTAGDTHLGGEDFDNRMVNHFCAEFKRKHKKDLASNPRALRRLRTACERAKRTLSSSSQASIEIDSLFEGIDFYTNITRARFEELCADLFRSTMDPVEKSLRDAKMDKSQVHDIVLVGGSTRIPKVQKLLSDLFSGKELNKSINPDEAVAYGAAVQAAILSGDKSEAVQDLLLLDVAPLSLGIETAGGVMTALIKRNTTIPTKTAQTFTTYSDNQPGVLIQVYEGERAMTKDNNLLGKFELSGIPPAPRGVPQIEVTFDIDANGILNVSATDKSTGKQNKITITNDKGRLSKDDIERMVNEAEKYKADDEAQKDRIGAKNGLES

Consider “DNJ-13 (C. elegans, unlabelled), Q20774 1-331 (natural protein)”, for which, in assay [1], the apparent KD of DNJ-13 from titration of the steady-state ATPase activity, standard buffer, 25°C was 4200 nM. The apparent KD of DNJ-13 from titration of the steady-state ATPase activity of 1 µM CeHsc70-Δ512 in the presence of 2 µM BAG-1, standard buffer, 25°C in assay [2] worked out at 1200 nM.
